Measured values from patent publication US20250042957A1 (Molecular Partners, published 2025).
Changes are numbered by the printed parent chain.

B1: Aminoglycoside phosphotransferase (APH) (enzyme)
chain: MRGSHHHHHHGSAKMRISPELKKLIEKYRSVKDTEGMSPAKVYKLVGENENLYLKMTDSRYKGTTYDVEREKDMMLWLEGKLPVPKVLHFERHDGWSNLLMSEADGVLCSEEYEDEQSPEKIIELYAECIRLFHSIDISDCPYTNSLDSRLAELDYLLNNDLADVDSENWEEDTPFKDPRELYDFLKTEKPEEELVFSHGDLGDSNIFVKDGKVSGFIDLGRSGRADKWYDIAFCVRSIREDIGEEQYVELFFDLLGIKPDWEKIKYYILLDELF
B2: VEGF165 (ligand, UniProt P15692-4 27-191, looked up)
chain: APMAEGGGQNHHEVVKFMDVYQRSYCHPIETLVDIFQEYPDEIEYIFKPSCVPLMRCGGCCNDEGLECVPTEESNITMQIMRIKPHQGQHIGEMSFLQHNKCECRPKKDRARQENPCGPCSERRKHLFVQDPQTCKCSCKNTDSRCKARQLELNERTCRCDKPRR
modifications: biotinylated in the ELISA of Example 4 (site not stated)
notes: also called biotinylated VEGF165; soluble VEGF
B3: α-CD3 DARPin-blocker (SEQ ID NO: 2) (designed binder)
chain: DLGKKLLQAARAGQLDEVRELLKAGADVNAKDAKGLTPLHLAAYHGHLEIVEVLLKAGADVNAKDVYGWTPLHIAAASGHLEIVEVLLKAGADVNAKDWLGWTPLHLAASHGHLEIVEVLLKAGADVNAQDKSGKTPADLAARAGHQDIAEVLQKAA
B4: Switchdrug DARPin 17-B (designed binder)
chain: MRGSHHHHHHGSDLGKKLLQAARAGQLDEVRELLKAGADVNAKDSTGWTPLHLAAPWGHPEIVEVLLKAGADVNAKDFQGWTPLHLAAAAGHLEIVEVLLKAGADVNAKDWLGWTPLHLAASHGHLEIVEVLLKAGADVNAQDKSGKTPADLAARAGHQDIAEVLQKAAGSPTPTPTTPTPTPTTPTPTPTGSDLGKKLLQAARAGQLDEVRELLKAGADVNAKDQYGRTPLHLAAIKGHLEIVEVLLKAGADVNAKDSLGYTPLHLAAVEGPLEIVEVLLKAGADVNAKDAYGQTPLHIAAAWGHLEIVEVLLKAVADVNAQDKSGKTPADLAARAGHQDIAEVLQKAAGSPTPTPTTPTPTPTTPTPTPTGSDLGQKLLEAAWAGQDDEVRELLKAGADVNAKNSRGWTPLHTAAQTGHLEIFEVLLKAGADVNAKNDKRVTPLHLAAALGHLEIVEVLLKAGADVNARDSWGTTPADLAAKYGHQDIAEVLQKAA
notes: also called 2-in-1 DARPin17 in Format B

How the values were obtained:
[1] = molecular target: T1, 2-in-1 DARPin 22 (SEQ ID NO: 91)
T1 chain: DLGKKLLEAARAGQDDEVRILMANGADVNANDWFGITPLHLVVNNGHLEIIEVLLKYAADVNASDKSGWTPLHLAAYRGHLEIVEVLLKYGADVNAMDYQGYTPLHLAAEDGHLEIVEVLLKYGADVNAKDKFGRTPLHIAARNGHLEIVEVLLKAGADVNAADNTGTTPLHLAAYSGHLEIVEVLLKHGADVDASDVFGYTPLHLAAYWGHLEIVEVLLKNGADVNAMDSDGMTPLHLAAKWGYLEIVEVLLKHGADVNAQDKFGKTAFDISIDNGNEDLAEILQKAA

[2] = molecular target: T2, 2-in-1 DARPin 21 (SEQ ID NO: 90)
T2 chain: T1 chain with R135K, N144A

Switchdrug DARPin 17-1 = molecular target: T3, Switchdrug DARPin 17-1; assay: ELISA: 10 nM Switchdrug DARPin 17-1 pre-incubated with titrated soluble VEGF; read-out is the construct bound to plate-bound biotinylated scCD3εγ (release of the α-CD3 binder)
T3 construct: also called 2-in-1 DARPin17 in Format 1
T3 chain: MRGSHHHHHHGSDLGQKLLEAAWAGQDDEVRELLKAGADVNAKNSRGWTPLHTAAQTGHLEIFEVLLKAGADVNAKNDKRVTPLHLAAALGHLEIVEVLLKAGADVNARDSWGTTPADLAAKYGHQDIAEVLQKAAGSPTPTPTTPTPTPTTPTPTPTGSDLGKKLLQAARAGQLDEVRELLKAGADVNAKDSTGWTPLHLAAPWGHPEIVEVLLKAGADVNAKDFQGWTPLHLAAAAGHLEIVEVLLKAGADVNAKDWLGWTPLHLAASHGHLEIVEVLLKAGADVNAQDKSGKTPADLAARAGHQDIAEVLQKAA
Description: (§1) Switchdrug DARPins that were mixed with VEGF were titrated and pre-incubated for 1 day with VEGF in order to establish the thermodynamic equilibrium. These samples were loaded on the ELISA plate, incubated and washed, before the bound Switchdrug DARPins were detected as described above.

Switchdrug DARPin 17-3 [3] = molecular target: T4, Switchdrug DARPin 17-3; assay: ELISA: 10 nM Switchdrug DARPin 17-3 pre-incubated with titrated soluble VEGF; read-out is the construct bound to plate-bound biotinylated scCD3εγ (release of the α-CD3 binder)
T4 construct: also called 2-in-1 DARPin17 in Format 3
T4 chain: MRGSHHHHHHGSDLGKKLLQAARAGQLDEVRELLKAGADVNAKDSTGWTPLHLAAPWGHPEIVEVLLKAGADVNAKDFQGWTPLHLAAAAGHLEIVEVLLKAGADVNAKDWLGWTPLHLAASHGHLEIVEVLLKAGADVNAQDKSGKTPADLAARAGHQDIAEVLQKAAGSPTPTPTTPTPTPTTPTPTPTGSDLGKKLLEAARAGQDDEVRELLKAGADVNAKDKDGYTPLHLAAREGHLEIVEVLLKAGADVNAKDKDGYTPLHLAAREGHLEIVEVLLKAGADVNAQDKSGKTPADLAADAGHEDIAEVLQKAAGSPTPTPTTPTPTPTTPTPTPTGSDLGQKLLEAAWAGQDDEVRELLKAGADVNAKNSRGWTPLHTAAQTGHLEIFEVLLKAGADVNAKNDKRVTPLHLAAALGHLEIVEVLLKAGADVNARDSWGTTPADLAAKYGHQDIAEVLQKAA
Description: as §1

Switchdrug DARPin 17-3 [4] = molecular target: T4, Switchdrug DARPin 17-3; assay: HTRF: 20 nM Switchdrug DARPin with titrated soluble VEGF; read-out is the construct's binding to 1 nM biotinylated scCD3εγ (release of the α-CD3 binder)
Description: (§2) Said Switchdrug DARPins (20 nM final concentration) were mixed with 1 nM (final concentration) scCD3εγ, 1:200 (final concentration) of anti-FLAG-d2 HTRF antibody-FRET acceptor conjugate (Cisbio) and 1:200 (final concentration) of anti-strep-Tb antibody FRET donor conjugate (Cisbio, France). […] The mix was added to a well of a 384-well plate and incubated for 90 minutes.

Switchdrug DARPin 18-3 [5] = molecular target: T5, Switchdrug DARPin 18-3; assay: as above
T5 construct: also called 2-in-1 DARPin18 in Format 3
T5 chain: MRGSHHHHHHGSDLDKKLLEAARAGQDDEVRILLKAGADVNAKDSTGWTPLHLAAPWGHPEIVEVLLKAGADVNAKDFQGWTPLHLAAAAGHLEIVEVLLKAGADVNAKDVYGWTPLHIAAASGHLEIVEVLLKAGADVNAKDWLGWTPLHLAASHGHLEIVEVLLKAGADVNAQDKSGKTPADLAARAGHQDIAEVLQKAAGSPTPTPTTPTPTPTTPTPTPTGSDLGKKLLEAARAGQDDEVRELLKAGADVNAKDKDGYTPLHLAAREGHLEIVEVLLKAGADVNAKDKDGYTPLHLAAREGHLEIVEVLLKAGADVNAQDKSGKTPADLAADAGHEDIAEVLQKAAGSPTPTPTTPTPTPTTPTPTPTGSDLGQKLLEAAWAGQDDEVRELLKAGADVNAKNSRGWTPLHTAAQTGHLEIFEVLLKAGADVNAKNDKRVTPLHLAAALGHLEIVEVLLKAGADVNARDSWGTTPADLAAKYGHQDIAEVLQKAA
Description: as §2

Switchdrug DARPin 15-3 = molecular target: T6, Switchdrug DARPin 15-3; assay: as above
T6 construct: also called 2-in-1 DARPin15 in Format 3
T6 chain: T4 chain with G15D, Q20E, L27D, E32I
Description: as §2

Switchdrug DARPin 18-3 [6] = molecular target: T5, Switchdrug DARPin 18-3; assay: ELISA: 100 nM Switchdrug DARPin 18-3 pre-incubated with titrated soluble VEGF; read-out is the construct bound to plate-bound biotinylated scCD3εγ (release of the α-CD3 binder)
Description: as §1

[7] = molecular target: T7, CD3-specific binding domain (SEQ ID NO: 3) (biotinylated when used as immobilized SPR ligand (site not stated)); assay: SPR (ProteOn), biotinylated CD3-specific binding domain immobilized, multi-trace 50-0.195 nM, 25 C
T7 construct: also called α-CD3 DARPin
T7 chain: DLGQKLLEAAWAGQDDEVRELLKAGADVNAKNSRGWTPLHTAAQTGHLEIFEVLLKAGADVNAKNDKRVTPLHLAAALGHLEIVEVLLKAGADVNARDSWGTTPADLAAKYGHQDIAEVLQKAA

VEGF165 [8] = molecular target: B2; assay: SPR (ProteOn), VEGF165 immobilized, multi-trace
scCD3εγ [9] = molecular target: T8, scCD3εγ; assay: ELISA: plate-bound biotinylated scCD3εγ, His-tagged construct titrated in presence of 100 nM soluble VEGF
T8 chain 1: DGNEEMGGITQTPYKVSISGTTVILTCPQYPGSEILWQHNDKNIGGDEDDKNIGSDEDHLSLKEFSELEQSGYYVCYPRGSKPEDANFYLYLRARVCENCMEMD
T8 chain 2: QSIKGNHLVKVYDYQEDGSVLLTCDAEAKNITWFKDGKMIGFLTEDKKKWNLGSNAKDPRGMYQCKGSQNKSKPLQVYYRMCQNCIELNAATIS
Description: (§3) The difference in binding of Switchdrug DARPins to scCD3εγ in presence and absence of VEGF was assessed. […] Said Switchdrug DARPins were mixed with a constant concentration of VEGF (100 nM) and tested for binding to scCD3εγ. […] The difference in EC50 of a construct in presence and absence of VEGF can be referred to as the “activation window”.
as §1

VEGF165 [10] = molecular target: B2; assay: ELISA: plate-bound biotinylated VEGF165, His-tagged construct titrated, no soluble VEGF, anti-His-HRP detection
Description: Then a titration of the Switchdrug DARPins was applied, incubated and washed. Detection of bound his-tagged constructs was done by anti-RGS(his)4 mAb HRP conjugate, and detected by TMB substrate.

VEGF165 [11] = molecular target: B2; assay: cell-based or functional assay
scCD3εγ [12] = molecular target: T8, scCD3εγ; assay: ELISA, biotinylated scCD3εγ on neutravidin plate, with against without 100 nM VEGF
Description: as §3, §1

B1
IC50 [1]: 47 nM | IC50 [2]: 55 nM

B2
EC50 (read off the curve) (Switchdrug DARPin 17-1): ~4 nM | EC50 (read off the curve) (Switchdrug DARPin 17-3 [3]): ~7 nM | EC50 (read off the curve) (Switchdrug DARPin 17-3 [4]): ~30 nM | EC50 (read off the curve) (Switchdrug DARPin 18-3 [5]): ~70 nM | EC50 (read off the curve) (Switchdrug DARPin 15-3): ~30 nM | EC50 (read off the curve) (Switchdrug DARPin 18-3 [6]): ~40 nM

B3
Kd [7]: 0.11 nM | koff [7]: 8.92e-05 s⁻¹ | kon [7]: 826000 M⁻¹ s⁻¹ | binding result (VEGF165 [8]): no binding (tested: 50 nM (highest concentration run))

B4
EC50 (read off the curve) (scCD3εγ [9]): ~2 nM | EC50 (read off the curve) (VEGF165 [10]): ~30 nM | T-cell activation (CD69+ cells of CD8+ T cells, Molm-13 target cells): activation window (VEGF165 [11]): 75 fold | activation window (difference in EC50 in presence and absence of VEGF) (scCD3εγ [12]): ~178 fold
